{"source": "patent US20040018558A1", "about": "(published 2004)", "note": "Where no end group is shown, it is not given here.", "data": [{"target": "recombinant reconstituted β2 adrenergic receptor", "experiment": "ELISA of clones panned from the Gs library, reconstituted β2 adrenergic receptor", "values": [{"binder": "QRLRLRKYRLF (peptide, not shown: small tags and cut ends, not fully specified)", "note": "[BAR31 QRLRLRKYRLF]", "ELISA": 0.026}, {"binder": "QRIHRRPFKFF (peptide, not shown: small tags and cut ends, not fully specified)", "note": "[BAR1 QRIHRRPFKFF]", "ELISA": 0.218}, {"binder": "QRMNLGPCGLL (peptide, not shown: small tags and cut ends, not fully specified)", "note": "[AG18 QRMNLGPCGLL]", "ELISA": 0.155}, {"binder": "QWMDLRQHELL (peptide, not shown: small tags and cut ends, not fully specified)", "note": "[BAR3 QWMDLRQHELL]", "ELISA": 0.185}, {"binder": "NCMKFRSCGLF (peptide, not shown: small tags and cut ends, not fully specified; cysteine pairing not given here)", "note": "[BAR20 NCMKFRSCGLF]", "ELISA": 0.079}, {"binder": "QRVHLRQDELL (peptide, not shown: small tags and cut ends, not fully specified)", "note": "[BAR2 QRVHLRQDELL]", "ELISA": 0.197}, {"binder": "DRMHLWRFGLL (peptide, not shown: small tags and cut ends, not fully specified)", "note": "[AG11 DRMHLWRFGLL]", "ELISA": 0.192}, {"binder": "QRLHLRGYEFL (peptide, not shown: small tags and cut ends, not fully specified)", "note": "[AG13 QRLHLRGYEFL]", "ELISA": 0.054}, {"binder": "QGMQLRRFKLR (peptide, not shown: small tags and cut ends, not fully specified)", "note": "[AG1 QGMQLRRFKLR]", "ELISA": 0.435}, {"binder": "PCIQLGQYESF (peptide, not shown: small tags and cut ends, not fully specified)", "note": "[BAR40 PCIQLGQYESF]", "ELISA": 0.028}, {"binder": "QRMPLRQYELL (peptide, not shown: small tags and cut ends, not fully specified)", "note": "[AG9 QRMPLRQYELL]", "ELISA": 0.19}, {"binder": "ERLHRRLFQLH (peptide, not shown: small tags and cut ends, not fully specified)", "note": "[BAR8 ERLHRRLFQLH]", "ELISA": 0.047}, {"binder": "PRPRLLRFKIP (peptide, not shown: small tags and cut ends, also: fused to carrier via linker, not given here)", "note": "[AG19 PRPRLLRFKIP]", "ELISA": 0.361}, {"binder": "QRLRLGPDELF (peptide, not shown: small tags and cut ends, not fully specified)", "note": "[AG4 QRLRLGPDELF]", "ELISA": 0.291}, {"binder": "RWLHWQYRGRG (peptide, not shown: small tags and cut ends, not fully specified)", "note": "[AG20 RWLHWQYRGRG]", "ELISA": 0.431}, {"binder": "QRMPLRLFEFL (peptide, not shown: small tags and cut ends, not fully specified)", "note": "[AG3 QRMPLRLFEFL]", "ELISA": 0.217}, {"binder": "QGEHLRQLQLQ (peptide, not shown: small tags and cut ends, not fully specified)", "note": "[AG2 QGEHLRQLQLQ]", "ELISA": 0.33}]}, {"target": "T1, light-activated rhodopsin (bovine rod outer segment membranes) (bovine, UniProt P02699 1-348, retinylidene chromophore bound to Lys-296)", "T1 construct": "whole, on cells; native receptor in membrane fragments immobilised on wells, not intact cells; also called metarhodopsin II; MII", "T1 sequence (P02699 whole entry, the tested form may be a part)": "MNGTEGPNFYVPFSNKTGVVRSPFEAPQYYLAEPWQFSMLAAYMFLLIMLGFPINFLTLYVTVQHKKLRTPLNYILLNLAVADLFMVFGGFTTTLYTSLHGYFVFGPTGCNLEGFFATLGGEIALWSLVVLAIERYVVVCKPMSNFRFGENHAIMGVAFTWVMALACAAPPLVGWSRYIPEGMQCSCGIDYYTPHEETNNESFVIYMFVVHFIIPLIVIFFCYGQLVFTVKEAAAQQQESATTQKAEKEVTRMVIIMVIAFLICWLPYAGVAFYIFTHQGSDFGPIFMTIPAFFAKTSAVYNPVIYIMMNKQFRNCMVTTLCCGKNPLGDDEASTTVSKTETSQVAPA", "experiment": "LacI display panning, light-activated ROS membranes", "experimental": "For screening of the library by “panning,” rhodopsin receptors prepared according to Example 5 were immobilized directly on Immulon 4 (Dynatech) microtiter wells (0.1-1 μg of protein per well) in cold 35 mM HEPES, pH 7.5, containing 0.1 mM EDTA, 50 mM KCl and 1 mM dithiothreitol (HEK/DTT). After shaking for one hour at 4° C., unbound membrane fragments were washed away with HEK/DTT. The wells were blocked with 100 μl 2% BSA in HEKL (35 mM HEPES; 0.1 mM EDTA; 50 mM KCl; 0.2 M α-lactose; pH 7.5, with 1 mM DTT). For rounds 1 and 2, BSA was used for blocking; in later rounds 1% nonfat dry milk was used. For the first round of panning, about 24 wells of a 96-well plate were used. In subsequent rounds, 8 wells with receptor and 8 wells without receptor were prepared.\nThe Gt library was thawed (2 mL aliquot) and mixed with 6 mL lysis buffer on ice. Lysis buffer contains 4.25 mL HE (25 mM HEPES: 0.1 mM EDTA; pH 7.5); 1 mL 50% glycerol; 750 μL 10 mg/mL protease-free BSA in HE; 10 μL 0.5 M DTT; and 6.25 μL 0.2 M PMSF. Freshly prepared lysozyme solution (150 μL 10 mg/mL lysozyme in cold HE) was added and the tube was gently inverted several times and incubated on ice for no more than two minutes. The extent of lysis is evidenced by an increase in viscosity that can be observed by noting the slow migration of bubbles to the top of the tube after mixing. Lysis was terminated by mixing in 2 mL 20% lactose and 250 μL 2M KCl. The tube was centrifuged immediately at 13,000×g for 15 minutes at 4° C. and the supernatant transferred to a new tube. A small aliquot of 0.1% (the PRE sample) was saved in a separate, labeled tube. […] Immediately thereafter, the crude bacterial lysate from the peptide library (200 μL) was added to each well and allowed to shake gently for one hour at 4° C. For round 2, this same procedure was followed. In round 3, the amount of lysate used was reduced to 100 μL. In subsequent rounds, the lysate was diluted 1:10 in HEKL/BSA.", "values": [{"binder": "MLKNLKDCGMF (peptide, not shown: small tags and cut ends, also: fused to LacI carrier via linker, letters not given here)", "note": "[Clone No. 24 (Table IX) MLKNLKDCGMF]", "binding result": "binds"}, {"binder": "IRENLEDCGLF (peptide, not shown: small tags and cut ends, also: fused to LacI carrier via linker, letters not given here)", "note": "[Clone No. 15/28 (Table IX) IRENLEDCGLF]", "binding result": "binds"}, {"binder": "ILTKLTDCGLF (peptide, not shown: small tags and cut ends, also: fused to LacI carrier via linker, letters not given here)", "note": "[Clone No. 4 (Table IX) ILTKLTDCGLF]", "binding result": "binds"}, {"binder": "IRETLKDCGLL (peptide, not shown: small tags and cut ends, also: fused to LacI carrier via linker, letters not given here)", "note": "[Clone No. 19 (Table IX) IRETLKDCGLL]", "binding result": "binds"}, {"binder": "ICENLKECGLF (peptide, not shown: small tags and cut ends, cysteine pairing not given here; also: fused to LacI carrier via linker, letters not given here)", "note": "[Clone No. 10 (Table IX) ICENLKECGLF]", "binding result": "binds"}, {"binder": "IHASLRDCGLF (peptide, not shown: small tags and cut ends, also: fused to LacI carrier via linker, letters not given here)", "note": "[Clone No. 11 (Table IX) IHASLRDCGLF]", "binding result": "binds"}, {"binder": "MRESLKDCGLF (peptide, not shown: small tags and cut ends, also: fused to LacI carrier via linker, letters not given here)", "note": "[Clone No. 17 (Table IX) MRESLKDCGLF]", "binding result": "binds"}, {"binder": "LLDNIKDCGLF (peptide, not shown: small tags and cut ends, also: fused to LacI carrier via linker, letters not given here)", "note": "[Clone No. 3 (Table IX) LLDNIKDCGLF]", "binding result": "binds"}, {"binder": "MLENLKDCGLF (peptide, not shown: small tags and cut ends, also: fused to LacI carrier via linker, letters not given here)", "note": "[Clone No. 18 (Table IX) MLENLKDCGLF]", "binding result": "binds"}, {"binder": "VLEDLKSCGLF (peptide, not shown: small tags and cut ends, also: fused to LacI carrier via linker, letters not given here)", "note": "[Clone No. 23 (Table IX) VLEDLKSCGLF]", "binding result": "binds"}, {"binder": "IQGVLKDCGLL (peptide, not shown: small tags and cut ends, also: fused to LacI carrier via linker, letters not given here)", "note": "[Clone No. 9 (Table IX) IQGVLKDCGLL]", "binding result": "binds"}, {"binder": "IIDNLKDCGLF (peptide, not shown: small tags and cut ends, also: fused to LacI carrier via linker, letters not given here)", "note": "[Clone No. 16 (Table IX) IIDNLKDCGLF]", "binding result": "binds"}, {"binder": "ILADVIDCGLF (peptide, not shown: small tags and cut ends, also: fused to LacI carrier via linker, letters not given here)", "note": "[Clone No. 26 (Table IX) ILADVIDCGLF]", "binding result": "binds"}, {"binder": "IFLNLKDCGLF (peptide, not shown: small tags and cut ends, also: fused to LacI carrier via linker, letters not given here)", "note": "[Clone No. 14 (Table IX) IFLNLKDCGLF]", "binding result": "binds"}, {"binder": "MCESLKECGLF (peptide, not shown: small tags and cut ends, cysteine pairing not given here; also: fused to LacI carrier via linker, letters not given here)", "note": "[Clone No. 27 (Table IX) MCESLKECGLF]", "binding result": "binds"}, {"binder": "LRESLKQCGLF (peptide, not shown: small tags and cut ends, also: fused to LacI carrier via linker, letters not given here)", "note": "[Clone No. 6 (Table IX) LRESLKQCGLF]", "binding result": "binds"}]}, {"target": "T2, rhodopsin (activation state not stated) (bovine, UniProt P02699 1-348)", "T2 construct": "whole, on cells; same protein as m1; also called EDTA-washed rhodopsin", "T2 sequence (P02699 whole entry)": "as the sequence (P02699 whole entry, the tested form may be a part) above", "experiment": "ELISA of lysates, OD450 with receptor minus without receptor", "experimental": "The methods of Example 7 repeated using rhodopsin screening with a Gt library. To identify the rank order of binding, the lysates were analyzed using ELISA methods in which the secondary antibody was conjugated to HRP. Following addition of the substrate, the microplate was read using a spectrophotometer. The binding is the OD₄₅₀ for wells with receptor—OD₄₅₀ for wells in which no receptor (control wells with empty lipid vesicles).", "units": {"ELISA": "OD450"}, "values": [{"binder": "IVEILEDCGLF (peptide, not shown: small tags and cut ends, also: fused to fusion carrier of the lysate via linker, not given here)", "note": "[L33 IVEILEDCGLF]", "ELISA": 1.01}, {"binder": "MLDNLKACGLF (peptide, not shown: small tags and cut ends, also: fused to lysate carrier and linker, not given here)", "note": "[L4 MLDNLKACGLF]", "ELISA": 0.908}, {"binder": "MLDNLKDCGLF (peptide, not shown: small tags and cut ends, also: fused to lysate carrier and linker, not given here)", "note": "[L7 MLDNLKDCGLF]", "ELISA": 0.525}, {"binder": "ILENLKDCGLF (peptide, not shown: small tags and cut ends, also: fused to fusion carrier of the lysate via linker, not given here)", "note": "[L3 ILENLKDCGLF]", "ELISA": 0.839}, {"binder": "ICENLKDCGLF (peptide, not shown: small tags and cut ends, cysteine pairing not given here; also: fused to lysate carrier and linker, not given here)", "note": "[L6 ICENLKDCGLF]", "ELISA": 0.342}, {"binder": "IRDNLKDCGLF (peptide, not shown: small tags and cut ends, also: fused to fusion carrier of the lysate via linker, not given here, second of two rows labelled L10)", "note": "[L10 IRDNLKDCGLF]", "ELISA": 0.162}]}]}
